Reference: publication PMC5915732, “Human Cytomegalovirus Encodes a Novel FLT3 Receptor Ligand Necessary for Hematopoietic Cell Differentiation and Viral Reactivation” (mBio, 2018)

Key:
[1] = biological target: human Fms-like tyrosine kinase 3 receptor (Flt-3R), GFP-tagged, on stable HEK-293 cells (HEK-293-hFlt-3R) (human) (UniProt P36888)
[2] = biological target: human Fms-like tyrosine kinase 3 receptor (Flt-3R), GFP-tagged, on stable HEK-293 cells (HEK-293-hFlt-3R) (human) (UniProt P36888); experiment: ELISA; competition on cells: HEK-293-hFlt-3R cells preincubated 1 h with 100-fold excess of nonbiotinylated pUL7 (5 ug/ml), Flt-3L (5 ug/ml), anti-Flt-3R antibody (1:100) or control antibody, washed with MEM, then incubated with 50 ng/ml biotinylated pUL7; HRP-streptavidin, absorbance at 450 nm
[3] = biological target: T1, human Fms-like tyrosine kinase 3 receptor (Flt-3R), GFP-tagged, on stable HEK-293 cells (HEK-293-hFlt-3R) (human, UniProt P36888 27-993); experiment: as above; conditions: one partner purified
T1 construct: human fms-tyrosine kinase 3 (FLT3), GFP-tagged, from plasmid OriGene RG211459, expressed on HEK-293 cells; In the functional rows from RS4;11 cells the receptor was the endogenous human Flt-3R of those cells, not this construct; also called human Flt-3 receptor; source: HEK-293, stably transfected (OriGene plasmid RG211459, G418 selection), on cells
T1 sequence (looked up): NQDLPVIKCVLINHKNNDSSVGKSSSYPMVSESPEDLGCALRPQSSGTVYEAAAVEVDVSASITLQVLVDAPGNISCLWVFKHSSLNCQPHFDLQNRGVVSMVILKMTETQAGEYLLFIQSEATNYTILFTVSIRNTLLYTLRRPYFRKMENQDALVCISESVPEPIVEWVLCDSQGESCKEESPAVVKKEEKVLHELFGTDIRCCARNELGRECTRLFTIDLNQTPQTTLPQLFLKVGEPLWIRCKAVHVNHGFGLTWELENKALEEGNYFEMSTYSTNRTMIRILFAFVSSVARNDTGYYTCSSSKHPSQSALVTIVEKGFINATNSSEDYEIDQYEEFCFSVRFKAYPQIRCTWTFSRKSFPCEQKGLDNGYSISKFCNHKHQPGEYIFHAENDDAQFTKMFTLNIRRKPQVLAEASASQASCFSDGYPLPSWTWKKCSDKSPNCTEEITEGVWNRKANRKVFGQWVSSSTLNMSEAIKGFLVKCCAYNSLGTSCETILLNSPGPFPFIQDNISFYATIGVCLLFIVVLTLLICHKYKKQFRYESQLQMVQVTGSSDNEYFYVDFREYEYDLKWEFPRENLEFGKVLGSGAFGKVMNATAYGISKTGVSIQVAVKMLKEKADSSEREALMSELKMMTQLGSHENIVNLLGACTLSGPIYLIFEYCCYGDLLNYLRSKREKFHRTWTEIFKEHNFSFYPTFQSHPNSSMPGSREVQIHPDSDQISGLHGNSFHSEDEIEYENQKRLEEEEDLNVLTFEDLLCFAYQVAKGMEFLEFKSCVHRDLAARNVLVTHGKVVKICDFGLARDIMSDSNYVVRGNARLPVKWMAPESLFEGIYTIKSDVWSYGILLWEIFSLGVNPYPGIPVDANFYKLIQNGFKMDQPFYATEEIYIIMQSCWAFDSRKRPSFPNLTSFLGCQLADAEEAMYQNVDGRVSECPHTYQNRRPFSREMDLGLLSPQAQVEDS

Molecule	phosphorylation of Akt (immunoblot) in serum-starved RS4;11 cells stimulated with 50 ng/ml pUL7, within 10 min, fold compared to the Fc control [1] [fold]	phosphorylation of ERK1/2 (immunoblot) in serum-starved RS4;11 cells stimulated with 50 ng/ml pUL7, within 10 min, fold compared to the Fc control [1] [fold]	phosphorylation of Flt-3R (immunoblot) in serum-starved RS4;11 cells stimulated with 50 ng/ml pUL7, within 10 min, fold compared to the Fc control [1] [fold]	percent reduction in binding of biotinylated pUL7 (100-fold excess of competitor) [2] [%]	percent reduction in binding of biotinylated pUL7 (100-fold excess of competitor) [3] [%]
purified UL7 (pUL7), recombinant UL7 protein from HCMV TB40E, nonbiotinylated (Fc fusion)	8	9	14	62	–
recombinant human Flt-3 ligand (Flt-3L) (ligand, UniProt P49771 27-184, looked up, recombinant human Flt-3 ligand, soluble; No catalogue number is printed; also called soluble Flt-3 ligand; 100XFlt-3L; source: bought: R&S Systems (so in the source)) TQDCSFQHSPISSDFAVKIRELSDYLLQDYPVTVASNLQDEELCGGLWRLVLAQRWMERLKTVAGSKMQGLLERVNTEIHFVTKCAFQPPPSCLRFVQTNISRLLQETSEQLVALKPWITRQNFSRCLELQCQPDSSTLPPPWSPRPLEATAPTAPQP	–	–	–	–	63
